Patent US20150010566A1 (AIMM THERAPEUTICS B V, published 2015)

Key:
[1] = molecular target: T1, H3 HA1 subunit (A/Aichi/2/1968, HA1 subunit, Met-1-Arg 345) (Influenza A virus H3N2 A/Aichi/2/1968, UniProt P03437 17-345); assay: ELISA; antigen coated 1 µg/ml; recombinant antibody; parameters: concentration or dose not given beside the values
T1 construct: range 1-345; also called H3N2 A/Aichi/2/1968 HA1 subunit

[2] = molecular target: T1, H3 HA1 subunit (A/Aichi/2/1968, HA1 …); assay: ELISA; HA1 subunit coated 1 µg/ml; recombinant antibody

| Binder | OD 450 nm [1] [OD 450 nm] | binding result [2] |
| --- | --- | --- |
| AT10-003 (antibody, V domains shown) VH: QVHLVQSGAEVRKPGASVKVSCKVSGYTLNELSIHWLRQAPGRGLEWMGSFDPEDGETIYAQKFQGRVTMTGDTSTDTAYLELTSLRSEDTALYYCARGWGAVTSPFDFWGQGTLVTVSS VL: DIVMTQSPLSLPVTPGEPASISCRSSQSLLHSNGHIYFDWYLQKPGQSPQLLIYLVSKRASGVPDRFSGSGSGTDFTLKISRVEAEDVGVYYCMQALETPFTFGPGTKVHIKR | 1.28 |  |
| AT10-004 (antibody, V domains shown) VH: QVQLVQSGAEVRKPGASVKVSCKASGYTFTRHGISWVRQAPGQGLEWMGWISAYTGDTDYAQKFQGRVTMTTDTSTNTAYMELRSLRSDDAAVYYCARLRLQGEVVVPPSQSNWFDPWGQGTLVTVSS VL: EIVLTQSPATLSLYPGERATLSCRASQSVSRYLAWYQQKPGQAPRLLIYDASNRATGIPARFSGSGSGTDFTLTISSLEPEDFAVYYCQQRSNWLKITFGQGTRLEIKG | 0.096 | no binding |
| AT10-001 (antibody, V domains shown) VH: EVQLLESGGGLVQPGGSLRLSCAASGFSFSTYAMSWVRQAPGKGLEWVSGISGSGESTYYADSVKGRFTVSRDNSKNTLYLQMNSLRAEDTAVYYCAKQGDHIAWLLRGINFDYWGQGVLVTVSS VL: EIVLTQSPGTLSLSPGERATLSCRASQSVSSSYLAWYQQKPGQAPRLLIYGASTRATGIPDRFSGRGSGTDFTLTISSLEPEDFAVYYCQNYGSPFLFTFGPGTKVDIKR | 0.01 | no binding |
| AT10-002 (antibody, V domains shown) VH: QLQLQESGPRLVKPSETLSLTCSVSGVSISSSNYYWGWIRQPPGKGLEWIGTIYHSGSTYYNPSLKSRLIISVDTSKNQFYLQLTSLTAADSAVYYCATGGGFGWSQTYFGYWGQGTLVTASS VL: QSALTQPASVSGSPGQSITISCTGTSSDVGAYNYVSWYQHHPGKAPKLMIYDVTYRPSGVSTRFSGSKSGNTASLTISGLQAEDEADYYCSSQSRSSTLVIFGGGTKLTVLG | -0.006 |  |
